Data from patent publication US20240158497A1 (published 2024).

T1: Macaca Fascicularis GP130 extracellular domain expressed with a C-terminal myc-myc-hexahistidine tag (Macaca fascicularis, UniProt P40189 23-619 (human entry))
T1 construct: also called mfGP130-MMH; mfGP130-mmH
T1 chain: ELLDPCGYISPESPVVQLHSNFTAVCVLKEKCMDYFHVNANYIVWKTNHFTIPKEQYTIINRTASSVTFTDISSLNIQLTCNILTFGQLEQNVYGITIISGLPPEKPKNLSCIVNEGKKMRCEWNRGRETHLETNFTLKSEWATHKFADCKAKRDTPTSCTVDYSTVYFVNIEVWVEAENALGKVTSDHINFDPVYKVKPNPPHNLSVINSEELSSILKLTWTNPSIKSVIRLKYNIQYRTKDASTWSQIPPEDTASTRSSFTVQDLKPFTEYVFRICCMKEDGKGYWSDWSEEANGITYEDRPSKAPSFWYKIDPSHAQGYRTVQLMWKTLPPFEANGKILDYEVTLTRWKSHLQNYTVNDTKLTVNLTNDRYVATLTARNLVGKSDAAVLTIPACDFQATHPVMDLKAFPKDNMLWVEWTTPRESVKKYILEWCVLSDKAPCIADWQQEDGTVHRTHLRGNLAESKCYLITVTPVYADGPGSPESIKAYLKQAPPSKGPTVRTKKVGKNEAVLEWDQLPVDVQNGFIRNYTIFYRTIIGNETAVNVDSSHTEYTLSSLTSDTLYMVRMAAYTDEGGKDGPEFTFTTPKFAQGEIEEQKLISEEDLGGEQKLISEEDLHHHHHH

B1: bsAb19139D (bispecific antibody, V domains shown)
VH 1: QVQLVESGGGVVQPGRSLRLSCTASGFTFSSYAMYWVRQAPGKGLEWVSVIYYDGSYKYYADSVKGRFTISRDNSKNTLYLQMDSLRAEDTAVYYCASYNWNYWYFDFWGRGTLVTVSS
VH 2: QVQLVESGGGVVQPGGSLRLSCAASGFTFSTYDIHWVRQAPGKGLEWVAVISFDGSNRNYGDSVKGRFTISRDNSDNTLFLEMNNLRFEDTAVYYCAKEGYGVDFQHWGQGTLVTVSS
VL: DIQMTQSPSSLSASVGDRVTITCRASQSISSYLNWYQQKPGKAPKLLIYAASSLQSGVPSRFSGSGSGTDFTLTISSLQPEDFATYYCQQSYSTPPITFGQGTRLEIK
notes: LEPR x GP130 bispecific with common light chain
B2: bsAb19140D (bispecific antibody, V domains shown)
VH 1: B1 VH 1
VH 2: QVQLQESGPGLVKPSETLSLTCTVSGGSISNYYWTWIRQPPGKGLEWIGHISNSGTTNYNPSLKSRVTISVDTSKNQFSLKLTSVTAADTAVYYCARLPLGIAAVDTDYYYYFGMDVWGQGTTVTVSS
VL: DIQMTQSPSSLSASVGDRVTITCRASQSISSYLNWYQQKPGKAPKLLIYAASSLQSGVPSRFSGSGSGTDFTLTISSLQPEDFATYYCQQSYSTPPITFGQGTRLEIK
notes: as for B1
B3: bsAb19141D (bispecific antibody, V domains shown)
VH 1: B1 VH 1
VH 2: EVQLVESGGGVVRPGGSLRLSCTASGFTFDDYGMSWVRQAPGKGLEWVSGINWNGGRTEYADAVKGRFIISRDNAKNSLYLQMNSLRAEDTALYFCARTELRWDYWGQGTLVTVSS
VL: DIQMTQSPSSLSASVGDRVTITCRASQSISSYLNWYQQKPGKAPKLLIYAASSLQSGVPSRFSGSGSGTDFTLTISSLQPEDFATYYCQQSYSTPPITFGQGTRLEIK
notes: as for B1
B4: bsAb19147D (bispecific antibody, V domains shown)
VH 1: B1 VH 1
VH 2: EVQLVESGGGLVQPGGSLRLSCTASGFTFSNYAIFWVRQAPGKGLEYVSGISNNGVTKYYADSVRDRFTISRDNSRNTVSIQMDSLRTEDMAVYYCARENWGSDDGFDIWGQGTMVTVSS
VL: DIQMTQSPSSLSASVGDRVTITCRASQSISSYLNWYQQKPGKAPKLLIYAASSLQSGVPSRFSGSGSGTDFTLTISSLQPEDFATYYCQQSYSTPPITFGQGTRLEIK
notes: as for B1
B5: bsAb19156D (bispecific antibody, V domains shown)
VH 1: B1 VH 1
VH 2: QVQLVESGGGLVKPGGSLRLSCAASGFTFSDYYMTWIRQTPGKGLDWVSYISSSGTNKYNADSVKGRFTISRDNAKNSLYLQMNSLRAEDTAVYYCVRDPPWGMDVWGQGTTVTVSS
VL: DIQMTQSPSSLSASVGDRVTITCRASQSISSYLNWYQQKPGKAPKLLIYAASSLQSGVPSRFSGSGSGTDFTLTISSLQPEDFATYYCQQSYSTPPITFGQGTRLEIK
notes: common light chain
B6: bsAb19757D (bispecific antibody, V domains shown)
VH 1: EVQLVESGGGLVQPGGSLRLSCVASGFTFNKYDMHWVRQTTGKGLEWVSGIDTDGDTYYPGSVKGRFTISRENAENSLYLQMNGLRVGDTAVYYCARWPWSGFYGAFDIWGQGTMVTVSS
VH 2: B3 VH 2
VL: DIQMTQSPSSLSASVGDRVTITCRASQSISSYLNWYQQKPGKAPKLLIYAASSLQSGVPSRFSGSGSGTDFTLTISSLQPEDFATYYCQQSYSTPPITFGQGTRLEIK
notes: common light chain
B7: bsAb19758D (bispecific antibody, V domains shown)
VH 1: B6 VH 1
VH 2: EVQLVESGGGLVQSGGSLRLSCAASGFTFSRYEMNWVRQAPGKGLEWVAYISNTGTTRDYSDSVKGRFTISRDNAKNSLYLQMSSLRVEDTAVYYCVREKFSGTSDWFDPWGQGTLVTVSS
VL: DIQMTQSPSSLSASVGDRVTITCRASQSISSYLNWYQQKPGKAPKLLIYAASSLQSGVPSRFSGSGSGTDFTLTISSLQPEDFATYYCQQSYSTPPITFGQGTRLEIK
notes: common light chain
B8: bsAb21236D (bispecific antibody, V domains shown)
VH 1: QVQLQESGPGLVKPSQTLSLTCTVSGGSISSGGDYWSWIRQLPGKGLEWIGYIYYSGSAYYNPSLKSRGTISIDTSKNQFSLKLTSVTAADTAVYFCVKLRFLEWFLGGWFGPWGQGTLVTVSS
VH 2: B5 VH 2
VL: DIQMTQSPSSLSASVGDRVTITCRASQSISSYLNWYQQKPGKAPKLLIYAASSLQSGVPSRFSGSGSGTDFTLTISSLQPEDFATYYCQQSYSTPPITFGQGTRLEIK
notes: common light chain; also called H4H21236D
B9: bsAb21237D (bispecific antibody, V domains shown)
VH 1: EVQLVESGGGLVQPGGSLRLSCAASGFTFSNYGMTWVRQAPGKGLEWVSAITGGGGSTYYSNSVKGRFTISRDNSKNTVYLRMNSVRAEDTAVYYCAKYKWNFVDDWGQGTTVTVSS
VH 2: B5 VH 2
VL: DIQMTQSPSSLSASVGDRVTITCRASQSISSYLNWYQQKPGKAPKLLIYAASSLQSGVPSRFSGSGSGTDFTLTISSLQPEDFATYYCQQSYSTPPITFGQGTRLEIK
notes: common light chain; also called H4H21237D

The binders below were run against T2, human GP130 extracellular domain expressed with a C-terminal myc-myc-hexahistidine tag (human, UniProt P40189 23-619) (assay: SPR, bsAb captured by anti-hFc, 25C).
T2 construct: also called hGP130-MMH; hGP130-mmH
Description: (§1) Equilibrium dissociation constants (KD values) for LEPR and GP130 binding to purified anti-LEPR/GP130 bispecific antibodies were determined using a real-time surface plasmon resonance biosensor using a Biacore 4000 instrument. All binding studies were performed in 10 mM HEPES, 150 mM NaCl, 3 mM EDTA, and 0.05% v/v Surfactant Tween-20, pH 7.4 (HBS-ET) running buffer at 25° C. and 37° C. The Biacore sensor surface was first derivatized by amine coupling with a monoclonal mouse anti-human Fc antibody (GE, #BR-1008-39) to capture anti-LEPR/GP130 bispecific antibodies. […] Different concentrations of LEPR or GP130 reagents were first prepared in HBS-ET running buffer (100 nM-3.7 nM; 3-fold serial dilution) and were injected over anti-human Fc captured anti-LEPR/GP130 bispecific antibody surface for 4 minutes at a flow rate of 30 μL/minute, while the dissociation of bispecific antibody bound LEPR or GP130 reagent was monitored for 10 minutes in HBS-ET running buffer. Kinetic association (kₐ) and dissociation (kd) rate constants were determined by fitting the real-time binding sensorgrams to a 1:1 binding model with mass transport limitation using Scrubber 2.0c curve-fitting software. Binding dissociation equilibrium constants (KD) and dissociative half-lives (t ½) were calculated from the kinetic rate constants as: […]

Row | Binder | 100 nM hGP130-MMH Bound (RU) | Kd | koff | kon | t½
1 | B1 | 6 RU |  |  |  | 
2 | B2 | 23 RU | 0.105 µM | 0.0477 s⁻¹ | 455000 M⁻¹ s⁻¹ | 0.2 min
3 | B3 | 15 RU | 0.219 µM | 0.0232 s⁻¹ | 106000 M⁻¹ s⁻¹ | 0.5 min

Target: T1, Macaca Fascicularis GP130 extracellular …
Experiment: SPR, bsAb captured by anti-hFc, 25C
Description: as §1

Row | Binder | 100 nM mfGP130-MMH Bound (RU) | Kd | koff | kon | t½
4 | B1 | 6 RU |  |  |  | 
5 | B2 | 20 RU | 0.136 µM | 0.0546 s⁻¹ | 402000 M⁻¹ s⁻¹ | 0.2 min
6 | B3 | 15 RU | 0.184 µM | 0.0207 s⁻¹ | 112000 M⁻¹ s⁻¹ | 0.6 min
7 | B4 | 5 RU |  |  |  | 

These binders were tested against T2, human GP130 extracellular domain … (assay: SPR, bsAb captured by anti-hFc, 37C).
Description: as §1

Row | Binder | 100 nM hGP130-MMH Bound (RU) | binding result | Kd | koff | kon | t½
8 | B1 | 3 RU | no binding (tested: 100 nM) |  |  |  | 
9 | B2 | 19 RU |  | 0.144 µM | 0.12 s⁻¹ | 829000 M⁻¹ s⁻¹ | 0.1 min
10 | B3 | 15 RU |  | 0.347 µM | 0.0621 s⁻¹ | 179000 M⁻¹ s⁻¹ | 0.2 min

Target: T1, Macaca Fascicularis GP130 extracellular …
Experiment: SPR, bsAb captured by anti-hFc, 37C
Description: as §1

Row | Binder | 100 nM mfGP130-MMH Bound (RU) | binding result | Kd | koff | kon | t½
11 | B1 | 2 RU | no binding (tested: 100 nM) |  |  |  | 
12 | B2 | 14 RU |  | 0.183 µM | 0.146 s⁻¹ | 797000 M⁻¹ s⁻¹ | 0.1 min
13 | B3 | 15 RU |  | 0.212 µM | 0.0513 s⁻¹ | 242000 M⁻¹ s⁻¹ | 0.2 min
14 | B4 | 3 RU | no binding (tested: 100 nM) |  |  |  | 

What follows are binders tested against T3, human LEPR extracellular domain expressed with a C-terminal myc-myc-hexahistidine tag (human, UniProt P48357 22-839) (assay: SPR Biacore 4000, bsAb captured by anti-human Fc, 25 C).
T3 construct: Monomeric reagent; the whole entry is the construct with its tag; also called hLEPR-MMH; hLEPR.mmh
Description: as §1

Row | Binder | 100 nM hLEPR-MMH Bound (RU) | Kd | koff | kon | t½
15 | B5 | 39 RU | 0.00711 µM | 0.000164 s⁻¹ | 23100 M⁻¹ s⁻¹ | 70 min
16 | B6 | 57 RU | 0.00785 µM | 0.000162 s⁻¹ | 20700 M⁻¹ s⁻¹ | 71 min
17 | B7 | 54 RU | 0.0103 µM | 0.000163 s⁻¹ | 15900 M⁻¹ s⁻¹ | 71 min
18 | B8 |  | 0.106 µM | 0.00372 s⁻¹ | 35100 M⁻¹ s⁻¹ | 3.1 min
19 | B9 | 11 RU | 0.0787 µM | 0.00121 s⁻¹ | 15300 M⁻¹ s⁻¹ | 

What follows are binders tested against T4, Macaca Fascicularis LEPR extracellular domain expressed with a C-terminal myc-myc-hexahistidine tag (Macaca fascicularis, UniProt Q9MYL0 22-837 (rhesus entry)) in the same assay as above.
T4 construct: Monomeric reagent; the whole entry is the construct with its tag; also called mfLEPR-MMH
Description: as §1

Row | Binder | 100 nM mfLEPR-MMH Bound (RU) | Kd | koff | kon | t½
20 | B5 | 97 RU | 0.00327 µM | 0.000132 s⁻¹ | 40400 M⁻¹ s⁻¹ | 87 min
21 | B6 | 7 RU |  |  |  | 
22 | B7 | 9 RU | 0.583 µM | 0.0225 s⁻¹ | 38600 M⁻¹ s⁻¹ | 0.5 min
23 | B8 | 12 RU | 0.0834 µM | 0.00482 s⁻¹ | 57900 M⁻¹ s⁻¹ | 2.4 min
24 | B9 | 16 RU | 0.0378 µM | 0.00116 s⁻¹ | 30800 M⁻¹ s⁻¹ | 

Each binder was assayed against T3, human LEPR extracellular domain … (assay: SPR Biacore 4000, bsAb captured by anti-human Fc, 37 C).
Description: as §1

Row | Binder | 100 nM hLEPR-MMH Bound (RU) | Kd | koff | kon | t½
25 | B5 | 60 RU | 0.023 µM | 0.000842 s⁻¹ | 36600 M⁻¹ s⁻¹ | 14 min
26 | B6 | 81 RU | 0.0191 µM | 0.000625 s⁻¹ | 32800 M⁻¹ s⁻¹ | 18 min
27 | B7 | 73 RU | 0.0206 µM | 0.000663 s⁻¹ | 32300 M⁻¹ s⁻¹ | 17 min
28 | B8 | 5 RU | 0.726 µM | 0.0131 s⁻¹ | 18000 M⁻¹ s⁻¹ | 0.9 min
29 | B9 | 15 RU | 0.28 µM | 0.00442 s⁻¹ | 15800 M⁻¹ s⁻¹ | 2.6 min

Each binder was assayed against T4, Macaca Fascicularis LEPR extracellular … in the same assay as above.
Description: as §1

Row | Binder | 100 nM mfLEPR-MMH Bound (RU) | Kd | koff | kon | t½
30 | B5 | 148 RU | 0.00588 µM | 0.000567 s⁻¹ | 96400 M⁻¹ s⁻¹ | 20 min
31 | B6 | 7 RU |  |  |  | 
32 | B7 | 5 RU |  |  |  | 
33 | B8 | 9 RU | 0.284 µM | 0.0176 s⁻¹ | 61900 M⁻¹ s⁻¹ | 0.7 min
34 | B9 | 27 RU | 0.151 µM | 0.00424 s⁻¹ | 28100 M⁻¹ s⁻¹ | 2.7 min
